Assay results from patent US8053415B2, “Compounds having RD targeting motifs” (Washington University in St. Louis, priority 2005, dated 2011).
“Also recorded” adds a separate entry of the source. Where a SMILES comes first, the peptide text is derived from it.

Legend:
[1] = tested on: A549 cell membranes (ABI); assay: ABI binding assay using A549 cell membranes; parameters: species or system human; conditions: compared with purified ABI
Source text: [SEQ ID NO:1] as the target receptor, tracer, and reference standard, respectively. Echistatin is a polypeptide that binds purified ABI specifically and irreversibly and the radiolabeled analogue is used widely in ABI binding assays. […] Because of the rearrangement of the RGD peptide sequence, the low binding of cypate-GRD peptide to ABI was expected.

[2] = tested on: A549 cells; assay: MTT cytotoxicity assay; type: cell-based, human; conditions: up to 100 μM solution in 20% aqueous DMSO, 24 h
Experimental: Cytotoxicity assays were performed using the 3-(4,5-dimethylthiazol-2-yl)-2,5-diphenyltetrazolium bromide (MTT) based in vitro toxicology assay kit (Sigma-Aldrich, St. Louis, Mo.) per the manufacturer's protocol. Briefly, A549 cells were grown in 96 well plates to 75% confluence in phenol red free Dulbecco's Modified Eagle's Medium supplemented with 10% fetal calf serum, 100 units/mL penicillin and 100 units/mL streptomycin. A concentration range (0-125 μM) of the compound to be tested was added to each well in a final volume of 100 μL/well and the cells were incubated for 24 h at 37° C. in 5% CO2. After incubation, the medium was removed and replaced with 100 μL/well phenol red free medium. Absorbances at 570 nm and 690 nm were measured. MTT (10 μL) was added to each well and the cells were incubated for 2 h. […] Absorbance at 570 nm and 690 nm were measured. The Δ570 and Δ690 were determined by taking the difference of the absorbances before and after the addition of MTT. The percent of viable cells, B, was determined according to the formula:
[formula] where λΔ570 was the absorbance of formazan crystals at 570 nm and λΔ690 was background at 690 nm.
The conventional MTT protocol typically involves background subtraction at 690 nm from the absorbance at 570 nm. […] To circumvent this problem, the background absorbance at 690 nm was adjusted by running parallel experiments with and without MTT. […]

[3] = tested on: HEK cells; assay: Cell uptake and internalization (Example 3); type: cell-based, human; conditions: within an hour of incubation
Experimental: (§1) The ABI-positive cells were incubated with cypate or cypate-peptide conjugates at 37° C. for different time points. A549 cells were grown as detailed above. The human glioblastoma cell line, U87, and the human embryonic kidney cell line, HEK, were purchased from ATTC. U87 and HEK cells were maintained in minimum essential medium (MEM) with 2 mM L-glutamine and Earle's BSS adjusted to contain 1.5 g/L sodium bicarbonate, 0.1 mM nonessential amino acids, and 1.0 mM sodium pyruvate, with 10% fetal calf serum, 100 units/mL penicillin, and 100 units/mL streptomycin. Cells were grown on Lab-Tek slides. The medium was replaced and cells were incubated for various times up to 4 h at 37° C. in the presence of 1 μM of the dye conjugated peptides. For fluorescence microscopy, cells were visualized with an Olympus BX61W1 microscope using 775/50 excitation, 845/55 emission. For subcellular localization studies, 25 nM mitotracker green or 50 nM lysotracker red from Molecular Probes (Eugene, Oreg.) was added during the last 15 min or 60 min of incubation, respectively. […] Relative fluorescence was determined for five different areas of each experimental condition using the Slidebook software, and the results were averaged. The average relative fluorescence for each condition was normalized to cells treated with Cyp-GRD peptide.

[4] = tested on: U87 cells; assay: Cell uptake and internalization (Example 3); type: cell-based, human; conditions: within an hour of incubation
Experimental: as §1

[5] = Absorption and emission spectral properties in 20% aqueous DMSO; type: physicochemical
Experimental: The spectral properties of cypate and the cypate-peptide conjugates were determined in 20% aqueous DMSO, which solubilizes all the compounds. […] Absorbance measurements were performed with a Beckman Coulter DU 640 spectrophotometer. The fluorescence spectra were recorded on Fluorolog-3 fluorometer (HORIBA Jobin Yvon Inc., Edison, N.J.). To prepare the stock solutions, a high precision analytical balance was used to weigh >2 mg of each compound, which was dissolved in DMSO. The DMSO solutions were then diluted with water to obtain a final solution of 20% aqueous DMSO. An aliquot (known volume) of the solution was transferred to a cuvette with 1 μL precision micropipettes and diluted with 20% aqueous DMSO solvent mixture to give a working solution that absorbs at <1.0 absorbance unit. Aliquots of the working solution were diluted with 20% aqueous DMSO and used to determine the molar absorptivity of each compound. For fluorescence measurements, probe solutions with 0.1 absorbance units were used to minimize inner filter effects.
Previous studies have shown that this solvent mixture boosts fluorescence intensity and is well tolerated by rodents. Additionally, the dyes and their peptide conjugates are soluble in this solvent mixture, providing a common medium for spectral measurements.
Absorbance spectra were measured on a Beckman Coulter DU 640 UV-Visible spectrophotometer. Fluorescence spectra were recorded on a HORIBA Jobin Yvon Fluorolog-3 fluorometer. Stock solutions (1.0 mM) of the conjugates were prepared by dissolving each sample in 80% aqueous DMSO. UV-Vis and fluorescence measurements were carried out by adding 5.0 μL of the stock solutions via a micropipette into 3 mL of 20% aqueous DMSO in a quartz cuvette.

With `CC1(C)C(/C=C/C=C/C=C/C=C2/N(CCC(=O)NCC(=O)N[C@@H](CCCNC(=N)N)C(=O)N[C@@H](CC(=O)O)C(=O)N[C@@H](CO)C(=O)N3CCC[C@H]3C(=O)N[C@@H](CCCCN)C(=O)O)c3ccc4ccccc4c3C2(C)C)=[N+](CCC(=O)O)c2ccc3ccccc3c21` [Cyp-GRD, Cypate-GRDSPK] (HELM PEPTIDE1{[CC1(C)C(/C=C/C=C/C=C/C=C2/N(CCC(=O)[*:2])c3ccc4ccccc4c3C2(C)C)=[N+](CCC(=O)O)c2ccc3ccccc3c21].G.R.D.S.P.K}$$$$V2.0) the “ABI binding affinity using A549 cell membranes” value [1] was “No improvement in the ABI binding affinity”, the “cell proliferation or cytotoxicity (percent of viable cells, MTT)” value [2] was “did not induce cell proliferation or cytotoxicity; also recorded: not cytotoxic” and the “internalization in HEK cells” value [3] was “internalization”. The “internalization in U87 cells” value [4] was “internalization”, the “^abεmax” value [5] was 237,680 cm^−1Mol^−1 and the “^abλmax” value [5] was 789 nm. The “^emλmax” value [5] was 813 nm.
